Test results as given in patent publication US10370436B2, “Anti-pseudomonas Psl binding molecules and uses thereof” (priority 2011, dated 2019).

Tests used:
[1] = system: luminescent P. aeruginosa serogroup 05 strain (PAO1.lux); experiment: Opsonophagocytosis killing (OPK) assay, PAO1.lux; format: cell-based, Pseudomonas aeruginosa; settings: human IgG1 antibodies, differentiated HL-60 cells, baby rabbit serum, FIG. 2A
Protocol: (§1) This example describes the evaluation of prioritized human IgG1 antibodies to promote OPK of P. aeruginosa. […] OPK assays were performed as described in (DiGiandomenico, A., et al., Infect Immun 72, 7012-7021 (2004)), with modifications. Briefly, assays were performed in 96-well plates using 0.025 ml of each OPK component; P. aeruginosa strains; diluted baby rabbit serum; differentiated HL-60 cells; and monoclonal antibody. In some OPK assays, luminescent P. aeruginosa strains, which were constructed as described (Choi, K. H., et al., Nat Methods 2, 443-448 (2005)), were used. Luminescent OPK assays were performed as described above but with determination of relative luciferase units (RLUs) using a Perkin Elmer ENVISION Multilabel plate reader (Perkin Elmer).
This example describes two series of experiments evaluating the ability of PMB-mAb conjugates to promote OPK of P. aeruginosa. In the first experiments (FIGS. 15A-B), conjugate-mediated OPK activity by human HL-60 neutrophil cell line in the presence of rabbit complement was evaluated using P. aeruginosa strains expressing bacterial luciferase as described in Example 2. R347 was used as a negative control in these experiments. […] In the second series of experiments, reduction in luminescence following 2 h incubation relative to control lacking mAb was used to determine % killing.

[2] = system: P. aeruginosa strain 9882-80 (O11); experiment: OPK assay, strain 9882-80.lux; format: cell-based, Pseudomonas aeruginosa; settings: strain 9882-80.lux (O11); FIG. 2B
Protocol: as §1
The ability of the WapR-004 and Cam-003 antibodies to mediate OPK activity against another clinically relevant O-antigen serotype strain, 9882-80.lux, was evaluated.

[3] = system: P. aeruginosa PAO1.lux association with A549 cells; experiment: Cell attachment assay, PAO1.lux to A549 cells; format: cell-based, Pseudomonas aeruginosa; settings: MOI of 10, FIG. 4, FIG. 9B
Protocol: Anti-Psl antibodies were added to a confluent monolayer of A549 cells (an adenocarcinoma human alveolar basal epithelial cell line) grown in opaque 96-well plates (Nunc Nunclon Delta). Log-phase luminescent P. aeruginosa PAO1 strain (PAO1.lux) was added at an MOI of 10. After incubation of PAO1.lux with A549 cells at 37° C. for 1 hour, the A549 cells were washed, followed by addition of LB+0.5% glucose. Bacteria were quantified following a brief incubation at 37° C. as performed in the OPK assay described in Example 2. Measurements from wells without A549 cells were used to correct for non-specific binding.

[4] = system: P. aeruginosa strains PAO1, 33356, 6294, 6077, 6206; experiment: Acute pneumonia model, organ burden; format: in vivo, BALB/c mice; settings: 6294 (O6) and 6206 (O11); FIGS. 7E, 7F
Protocol: Antibodies or PBS were administered 24 hours before infection in each model. P. aeruginosa acute pneumonia, keratitis, and thermal injury infection models were performed as described (DiGiandomenico, A., et al., Proc Natl Acad Sci USA 104, 4624-4629 (2007)), with modifications. In the acute pneumonia model, BALB/c mice (The Jackson Laboratory) were infected with P. aeruginosa strains suspended in a 0.05 ml inoculum. In the thermal injury model, CF-1 mice (Charles River) received a 10% total body surface area burn with a metal brand heated to 92° C. for 10 seconds. Animals were infected subcutaneously with P. aeruginosa strain 6077 at the indicated dose. For organ burden experiments, acute pneumonia was induced in mice followed by harvesting of lungs, spleens, and kidneys 24 hours post-infection for determination of CFU.

[5] = system: P. aeruginosa 6077 (O11-cytotoxic); experiment: P. aeruginosa corneal infection (keratitis) model; format: in vivo, mice; settings: versus negative control-treated animals, 24 hours after infection
Protocol: FIG. 8 (A-G): Anti-Psl monoclonal antibodies Cam-003 and WapR-004 are active in a P. aeruginosa keratitis model and thermal injury model. Mice were treated with a control IgG1 antibody or Cam-003 at 45 mg/kg (A, B) or 15 mg/kg (C, D) or PBS or a control IgG1 antibody or Cam-003 at 45 mg/kg or WapR-004 at 45 mg/kg or 15 mg/kg or 5 mg/kg (F, G) 24 hours prior to infection with 6077 (O11-cytotoxic—2×10^6 CFU). Immediately before infection, three 1 mm scratches were made on the left cornea of each animal followed by topical application of P. aeruginosa in a 5 μl inoculum. 24 hours after infection, the corneal pathology scores were calculated followed by removal of the eye for determination of viable CFU. Differences in pathology scores and viable CFU were determined by the Mann-Whitney U-test. (A) P=0.0001, (B) P<0.0001, (C) P=0.0003, (D) P=0.0015. (F) and (G) Cam-003 (45 mg/kg) vs. WapR-004 (45 mg/kg): P=0.018; Cam-003 (45 mg/kg) vs. WapR-004 (15 mg/kg): P=0.0025; WapR-004 (45 mg/kg) vs. WapR-004 (15 mg/kg): P=0.1331; WapR-004 (5 mg/kg) vs. Ctrl: P<0.0001. Results are representative of five independent experiments. (E) Survival analysis from Cam-003 and R347 treated CF-1 mice in a P. aeruginosa thermal injury model after 6077 infection (2×10^5 CFU) (log-rank: R347 vs. Cam-003 15 mg/kg, P=0.0094; R347 vs. Cam-003 5 mg/kg, P=0.0017). […]

B1: WapR-004: anti-Psl antibody, VH SEQ ID NO: 11 and VL SEQ ID NO: 12 (antibody, V domains shown)
VH: EVQLLESGPGLVKPSETLSLTCNVAGGSISPYYWTWIRQPPGKGLELIGYIHSSGYTDYNPSLKSRVTISGDTSKKQFSLHVSSVTAADTAVYFCARGDWDLLHALDIWGQGTLVTVSS
VL: EIVLTQSPSSLSTSVGDRVTITCRASQSIRSHLNWYQQKPGKAPKLLIYGASNLQSGVPSRFSGSGSGTDFTLTISSLQPEDFATYYCQQSYSFPLTFGGGTKLEIK
modifications: WapR-004 VH; WapR-004 & WarR-004RAD VL
OPK activity (concentration dependent killing) [1]: superior OPK activity
OPK activity [2]: OPK activity extends to strain 9882-80
inhibition of association of PAO1.lux to A549 cells [3]: most active at inhibiting P. aeruginosa cell attachment to A549 lung epithelial cells
dissemination to the spleen and kidneys [4]: effective at reducing P. aeruginosa dissemination to the spleen and kidneys
organ burden [4]: reduced organ burden
bacterial counts in total eye homogenates [5]: reduced bacterial counts
corneal pathology ([5]; FIGS. 8A-D, F-G): significantly less pathology
